Measured values published in patent US20260069728A1, “MULTI-TARGETING COMPOUND AND USE THEREOF” (Chengdu Shetai Medical Technology Co., Ltd., priority 2023, published 2026).
Read-outs that look alike come from different tables or passages of the source. *1 amine or outer side, *2 acyl side, *3 side chain or, on linkers, in order; H or OH if unused. Where a SMILES comes first, the peptide text is derived from it. Bridges are numbered along the chain shown (N, C = ends). [ ]: non-standard residue; d: D form. The star is where a group is joined. X1 = N#C[C@@H]1CC(F)(F)CN1C(=O)CNC(=O)c1ccnc2ccc(OCCCN3CCN(*)CC3)cc12; DOTA = O=C(O)CN1CCN(CC(=O)O)CCN(CC(=O)*)CCN(CC(=O)O)CC1; 2Nal = N[C@@H](Cc1ccc2ccccc2c1)C(=O)O; Cit = NC(=O)NCCC[C@H](N)C(=O)O; Suc = O=C(CCC(=O)[*:2])[*:1]; AEEA = NCCOCCOCC(=O)O

Test: Stability of radioligands in PBS buffer (radio-HPLC)
Assay type: physicochemical
[1] = PBS buffer pH=7.4, 37° C., 0.5 hours
[2] = PBS buffer pH=7.4, 37° C., 1 hour
[3] = PBS buffer pH=7.4, 37° C., 2 hours

Structure (SMILES)	stability in PBS buffer (in words)	radiochemical purity after incubation in PBS [1] [%]	radiochemical purity after incubation in PBS [2] [%]	radiochemical purity after incubation in PBS [3] [%]	stability in PBS buffer (in words) (PBS buffer pH=7.4, 37° C.)
N#C[C@@H]1CC(F)(F)CN1C(=O)CNC(=O)c1ccnc2ccc(OCCCN3CCN(C(=O)CCC(=O)N[C@@H](CCCCNC(=O)CN4CCN(CC(=O)O)CCN(CC(=O)O)CCN(CC(=O)O)CC4)C(=O)NCCOCCOCC(=O)NCCOCCOCC(=O)N[C@@H](CCCNC(=N)N)C(=O)N[C@@H](CCCNC(=N)N)C(=O)N[C@@H](Cc4ccc5ccccc5c4)C(=O)N[C@H]4CSSC[C@@H](C(=O)N[C@@H](CCCNC(=N)N)C(N)=O)NC(=O)[C@H](CCCNC(N)=O)NC(=O)[C@H](CCCNC(=N)N)NC(=O)[C@H](Cc5ccc(O)cc5)NC(=O)[C@@H]5CCCN5C(=O)[C@H](CCCCN)NC(=O)[C@H](CCCCN)NC(=O)[C@H](CCCNC(N)=O)NC(=O)[C@H](Cc5ccc(O)cc5)NC4=O)CC3)cc12 [^68Ga-SDYD01, metal not drawn] ({X1-Suc}-K(DOTA)[AEEA][AEEA]RR[2Nal]CY[Cit]KKPYR[Cit]CR-NH2; disulfide 7-16)	quite stable in PBS buffer	98	97	97	
CCCCCC(=O)N[C@H]1CSCc2cc(CSCCNC(=O)[C@H](CCCCNC(=O)CN3CCN(CC(=O)O)CCN(CC(=O)O)CCN(CC(=O)O)CC3)NC(=O)COCCOCCNC(=O)COCCOCCNC(=O)CCN3C(=O)CC(SCCNC(=O)CCC(=O)NCc4ccc(NC(=O)COCC(=O)N[C@H](Cc5ccccc5)C(=O)N[C@@H](CCC(N)=O)C(=O)N[C@@H](Cc5c[nH]c6ccccc56)C(=O)N[C@@H](C)C(=O)N[C@H](C(=O)NCC(=O)N[C@@H](Cc5c[nH]cn5)C(=O)NC(CC(C)C)CC(C)C)C(C)C)cc4)C3=O)cc(c2)CSC[C@@H](C(=O)O)NC(=O)[C@H](Cc2ccccc2)NC(=O)[C@H](CCC(N)=O)NC(=O)C([C@@H](C)O)NC(=O)[C@@H]2CCCN2C(=O)[C@@H]2CCCN2C1=O (some centres unmarked) [^68Ga-SDYD04, metal not drawn]		97	97	95	quite stable in PBS buffer
